Measurements published in article PMC9849236.

What was measured:
[1] = target: hGLP1R-GFP (human) (UniProt P43220)
[2] = target: SNAP-hGLP1R (human) (UniProt P43220)
[3] = target: SNAPf-mGLP1R (mouse) (UniProt O35659)
Sequence of UniProt O35659 (O35659 22-463): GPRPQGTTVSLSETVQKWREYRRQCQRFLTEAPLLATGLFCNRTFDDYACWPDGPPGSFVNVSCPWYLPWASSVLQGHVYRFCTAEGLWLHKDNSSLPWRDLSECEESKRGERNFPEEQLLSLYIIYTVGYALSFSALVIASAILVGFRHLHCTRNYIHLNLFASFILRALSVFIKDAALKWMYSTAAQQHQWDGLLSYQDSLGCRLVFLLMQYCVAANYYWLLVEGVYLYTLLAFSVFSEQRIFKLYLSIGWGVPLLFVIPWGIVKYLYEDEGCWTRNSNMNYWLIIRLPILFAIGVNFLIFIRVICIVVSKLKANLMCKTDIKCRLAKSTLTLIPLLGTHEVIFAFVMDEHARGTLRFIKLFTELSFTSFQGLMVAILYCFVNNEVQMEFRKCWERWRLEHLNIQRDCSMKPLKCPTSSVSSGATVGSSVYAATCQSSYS

Substance: Exendin4(1-39) (peptide)
- EC50 of Exendin4-induced cAMP generation (LANCE cAMP assay, transfected AD293 cells, 30 min with ligand + 100 µM IBMX) [1]: 5 pM
- EC50 of Exendin4-induced cAMP generation (LANCE cAMP assay, transfected AD293 cells, 30 min with ligand + 100 µM IBMX) [2]: 8.02 pM
- EC50 of Exendin4-induced cAMP generation (LANCE cAMP assay, transfected AD293 cells, 30 min with ligand + 100 µM IBMX) [3]: 4.22 pM
